# Measurements from patent US5935824.
# Key:
# [1] = target: Lys-Lys peptide Pro-Leu-Ser-Arg-Leu-Ser-Val-Ala-Lys-Lys
# [2] = target: control peptide Ala-Leu-Lys-Asp-Ala-Gln-Thr-Asn-Ser-Ser-Ser-Phe
# [3] = target: N-CBZ-Phe-Ala
# [4] = target: N-CBZ-Ala-Leu
# [5] = target: N-CBZ-Glu-Tyr
# [6] = target: N-CBZ-Pro-Phe
# [7] = target: N-CBZ-Gly-Pro
# [8] = target: N-CBZ-Ala-Pro
# [9] = target: N-CBZ-Gly-Pro-Leu-Ala-Pro
# [10] = target: MBP/IgG fusion protein encoded by pMA2-TH-IgG-9 (E. coli; human)
Substance,"first order rate constant of hydrolysis of the Lys-Lys bond, ninhydrin assay of free lysine [1] [min⁻¹]","removal of the carboxy-terminal phenylalanine, HPLC of the digestion products [2] [%]",rate of digestion at the flow rate of 4 ml/minute [3] [µmol/min],"K^1 min^-1 (first order rate constant, flow digestion at 2 ml/min) [4] [min⁻¹]","K^1 min^-1 (first order rate constant, flow digestion at 2 ml/min) [5] [min⁻¹]","K^1 min^-1 (first order rate constant, flow digestion at 2 ml/min) [6] [min⁻¹]","K^1 min^-1 (first order rate constant, flow digestion at 2 ml/min) [7] [min⁻¹]","K^1 min^-1 (first order rate constant, flow digestion at 2 ml/min) [8] [min⁻¹]","kinetic constant of hydrolysis of the remaining Pro-Leu bond, ninhydrin assays of released amino acids [9] [min⁻¹]","cleavage of the fusion protein, time course on SDS-PAGE (% cleaved after 5 minutes) [10]"
carboxypeptidase Y (from UniProt P00729) (enzyme),0.16,96,42,27.5,24.2,1.48,0.16,22.4,18.4,
thrombin (Sigma) (enzyme),,,,,,,,,,75
